{"source": "patent US11965032", "about": "(TG THERAPEUTICS, dated 2024)", "binders": {"B1": {"name": "TG-1101 (TG Therapeutics, Inc.) (antibody, human IgG1, kappa)", "heavy": "not shown", "light": "QIVLSQSPAILSASPGEKVTMTCRASSSVSYMHWYQQKPGSSPKPWIYATSNLASGVPARFSGSGSGTSYSFTISRVEAEDAATYYCQQWTFNPPTFGGGTRLEIKRTVAAPSVFIFPPSDEQLKSGTASVVCLLNNFYPREAKVQWKVDNALQSGNSQESVTEQDSKDSTYSLSSTLTLSKADYEKHKVYACEVTHQGLSSPVTKSFNRGEC", "notes": "Chimeric IgG1 made in YB2/0 rat hybridoma cells, with low-fucose N-glycans; also called ublituximab; Ubli"}}, "key": {"[1]": {"target": "T1, CD20 on Jeko-1, Raji and Daudi cells (human, UniProt P11836 1-297)", "T1 construct": "whole, on cells; also called cell surface CD20", "T1 sequence (looked up)": "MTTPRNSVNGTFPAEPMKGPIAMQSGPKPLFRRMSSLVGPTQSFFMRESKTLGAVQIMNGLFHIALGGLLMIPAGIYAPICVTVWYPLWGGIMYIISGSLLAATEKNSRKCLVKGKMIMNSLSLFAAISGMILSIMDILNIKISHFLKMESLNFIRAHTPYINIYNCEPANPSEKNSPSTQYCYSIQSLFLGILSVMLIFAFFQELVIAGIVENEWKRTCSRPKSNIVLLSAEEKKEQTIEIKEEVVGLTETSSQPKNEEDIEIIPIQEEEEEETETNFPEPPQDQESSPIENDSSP", "experiment": "cell-based MSD electrochemiluminescence binding assay on CD20 expressing Jeko-1 cells"}, "[2]": {"target": "T2, FcγIIIA Receptor on the effector cells (human, UniProt P08637 17-254)", "T2 sequence (P08637 17-254)": "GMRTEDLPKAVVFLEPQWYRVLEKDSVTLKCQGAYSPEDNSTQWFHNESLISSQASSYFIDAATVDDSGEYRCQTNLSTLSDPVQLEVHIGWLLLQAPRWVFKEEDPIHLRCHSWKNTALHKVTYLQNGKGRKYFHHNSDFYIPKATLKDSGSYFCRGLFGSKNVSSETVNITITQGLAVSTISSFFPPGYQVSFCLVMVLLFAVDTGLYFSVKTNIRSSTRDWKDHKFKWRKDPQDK", "experiment": "cell-based or functional assay"}, "[3]": {"target": "T3, FcγRIIIa 158V receptor (SPR assay) (UniProt P08637 17-208, limits assumed)", "T3 construct": "Immobilised on the SPR chip by amine coupling; The 158V allotype uses mature numbering", "T3 sequence (P08637 17-208 F176V limits assumed)": "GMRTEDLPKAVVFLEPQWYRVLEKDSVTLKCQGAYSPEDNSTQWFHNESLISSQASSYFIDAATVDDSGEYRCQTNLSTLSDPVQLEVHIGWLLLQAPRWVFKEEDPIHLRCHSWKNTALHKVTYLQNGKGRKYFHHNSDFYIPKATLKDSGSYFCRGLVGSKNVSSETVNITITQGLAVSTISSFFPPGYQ", "experiment": "SPR, receptor immobilised", "protocol": "(§1) The method follows a direct binding assay methodology where the FcγRIIIa receptor is directly immobilized onto the flow cell on a sensor chip surface and samples are injected over the chip to assess binding. […] Independent duplicates of sample dilutions are injected over the chip, followed by surface regeneration between each cycle. The binding is measured in response units (RU). The kinetics of the binding reaction is determined by measuring changes in SPR due to the increase in mass in the close proximity to the biosensor chip surface. Change in the mass of the complex as a function of time is visualized as a sensorgram.\n(§2) The equilibrium dissociation constants (K_D) of each sample is determined for each receptor."}, "[4]": {"target": "T4, FcγRIIIa 158F receptor (SPR assay) (UniProt P08637 17-208, limits assumed)", "T4 construct": "Immobilised on the SPR chip by amine coupling", "T4 sequence (P08637 17-208 limits assumed)": "as the sequence (P08637 17-208 F176V limits assumed) above, with V160F counted along it", "experiment": "SPR, receptor immobilised", "protocol": "as §1, §2"}, "[5]": {"target": "T5, FcγRIIIA F158 (human Fc receptor panel, Octet) (human, UniProt P08637 17-208)", "T5 construct": "Captured on anti-penta-His biosensors, so it carries a His tag; It is kept apart from the SPR receptor because the constructs may differ", "T5 sequence (P08637 17-208 limits assumed)": "as the sequence (P08637 17-208 F176V limits assumed) above, with V160F counted along it", "experiment": "BLI (Octet HTX), receptor on anti-penta-His biosensor, 1:1 model", "protocol": "(§3) This analysis was performed by LakePharma. Binding characterization were carried out on Octet HTX instrument at 25° C. Human Fc receptor panel were loaded onto Anti-Penta His (H1S1K) biosensors. Loaded sensors were dipped into a serial dilutions of the testing samples (300 nM start, 1:3 dilution, 7 points). Kinetic constants were calculated using a monovalent (1:1) binding model."}, "[6]": {"target": "T6, FcγRI (human Fc receptor panel, Octet) (human, UniProt P12314 16-288, limits assumed)", "T6 construct": "Captured on anti-penta-His biosensors, so it carries a His tag", "T6 sequence (P12314 16-288 limits assumed)": "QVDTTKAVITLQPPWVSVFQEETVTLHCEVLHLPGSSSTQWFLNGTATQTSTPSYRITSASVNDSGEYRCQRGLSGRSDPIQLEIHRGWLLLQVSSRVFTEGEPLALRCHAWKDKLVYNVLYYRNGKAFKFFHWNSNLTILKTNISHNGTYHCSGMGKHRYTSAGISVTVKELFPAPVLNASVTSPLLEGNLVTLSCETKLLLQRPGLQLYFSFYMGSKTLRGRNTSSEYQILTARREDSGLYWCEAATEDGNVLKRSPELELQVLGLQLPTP", "experiment": "BLI (Octet HTX), receptor on anti-penta-His biosensor, 1:1 model", "protocol": "as §3"}, "[7]": {"target": "T7, FcγRIIIA V158 (human Fc receptor panel, Octet) (human, UniProt P08637 17-208)", "T7 construct": "Captured on anti-penta-His biosensors, so it carries a His tag; It is kept apart from the SPR receptor because the constructs may differ; also called FcγRIIIa 158V", "T7 sequence (P08637 17-208 F176V limits assumed)": "as the sequence (P08637 17-208 F176V limits assumed) above", "experiment": "BLI (Octet HTX), receptor on anti-penta-His biosensor, 1:1 model", "protocol": "as §3"}, "[8]": {"target": "T8, FcγRIIA (human Fc receptor panel, Octet) (human, UniProt P12318 36-218, limits assumed)", "T8 construct": "Captured on anti-penta-His biosensors, so it carries a His tag", "T8 sequence (looked up)": "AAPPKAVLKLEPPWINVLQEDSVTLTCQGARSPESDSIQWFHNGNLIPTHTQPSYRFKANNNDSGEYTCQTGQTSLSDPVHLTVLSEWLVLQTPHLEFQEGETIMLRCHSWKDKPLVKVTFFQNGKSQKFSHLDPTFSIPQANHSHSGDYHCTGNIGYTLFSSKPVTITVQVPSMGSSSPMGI", "experiment": "BLI (Octet HTX), receptor on anti-penta-His biosensor, 1:1 model", "protocol": "as §3"}, "[9]": {"target": "T9, FcγRIIIB (human Fc receptor panel, Octet) (human, UniProt O75015 17-200)", "T9 construct": "Captured on anti-penta-His biosensors, so it carries a His tag", "T9 sequence (O75015 17-200 limits assumed)": "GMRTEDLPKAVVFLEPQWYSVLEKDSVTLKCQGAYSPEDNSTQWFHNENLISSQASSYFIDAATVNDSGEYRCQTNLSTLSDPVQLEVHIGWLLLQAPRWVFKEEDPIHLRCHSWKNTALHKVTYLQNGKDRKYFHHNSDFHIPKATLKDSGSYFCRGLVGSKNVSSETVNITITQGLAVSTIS", "experiment": "BLI (Octet HTX), receptor on anti-penta-His biosensor, 1:1 model", "protocol": "as §3"}, "[10]": {"target": "T10, FcRn (human Fc receptor panel, Octet) (human, UniProt P55899 24-297; P61769 21-119)", "T10 construct": "Captured on anti-penta-His biosensors, so it carries a His tag", "T10 sequence (P55899 24-297 limits assumed, chain 1 of 2)": "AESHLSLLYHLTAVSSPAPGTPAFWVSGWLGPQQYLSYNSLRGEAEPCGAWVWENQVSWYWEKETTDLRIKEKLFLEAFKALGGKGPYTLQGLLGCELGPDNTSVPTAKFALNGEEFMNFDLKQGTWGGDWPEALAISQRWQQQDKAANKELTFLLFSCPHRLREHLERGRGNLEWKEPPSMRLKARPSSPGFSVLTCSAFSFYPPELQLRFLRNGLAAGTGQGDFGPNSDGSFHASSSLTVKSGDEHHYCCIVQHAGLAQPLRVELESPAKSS", "T10 sequence (P61769 21-119 limits assumed, chain 2 of 2)": "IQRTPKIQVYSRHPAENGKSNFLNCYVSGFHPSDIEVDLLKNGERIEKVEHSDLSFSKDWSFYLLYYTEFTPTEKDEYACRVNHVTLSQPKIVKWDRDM", "experiment": "BLI (Octet HTX), receptor on anti-penta-His biosensor, 1:1 model", "protocol": "as §3"}, "[11]": {"target": "T11, FcγRIIB/C (human Fc receptor panel, Octet) (human, UniProt P31994 46-217, limits assumed)", "T11 construct": "Captured on anti-penta-His biosensors, so it carries a His tag", "T11 sequence (looked up)": "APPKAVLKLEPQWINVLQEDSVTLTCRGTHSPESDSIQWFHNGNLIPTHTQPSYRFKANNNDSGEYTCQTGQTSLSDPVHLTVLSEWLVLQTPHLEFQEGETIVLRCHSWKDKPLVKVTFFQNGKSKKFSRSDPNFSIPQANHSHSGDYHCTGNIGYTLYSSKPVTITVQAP", "experiment": "BLI (Octet HTX), receptor on anti-penta-His biosensor, 1:1 model", "protocol": "as §3"}, "[12]": {"target": "T1, CD20 on Jeko-1, Raji and Daudi cells", "experiment": "flow cytometry (FACS) on Raji cells, PE conjugated anti-human secondary antibody", "protocol": "(§4) A six-point dilution series of the samples, in duplicates and in the concentration range of 40 μg/ml-0 ug/ml with a dilution factor of 5 were used. Cells were incubated with sample dilutions; binding was detected using a PE conjugated anti-human secondary antibody."}, "[13]": {"target": "T2, FcγIIIA Receptor on the effector cells", "experiment": "cell-based or functional assay", "remark": "listed apart in the source"}, "[14]": {"target": "C1q in the complement system (rabbit serum as the source of complement) (rabbit)", "experiment": "cell-based or functional assay"}, "HRP conjugated human C1q [15]": {"target": "T12, HRP conjugated human C1q (human, UniProt P02745 23-245; P02746 28-253; P02747 29-245, peroxidase (HRP) conjugated; site not stated)", "T12 construct": "also called Peroxidase conjugated C1q", "T12 sequence (P02745 23-245 limits assumed, chain 1 of 3)": "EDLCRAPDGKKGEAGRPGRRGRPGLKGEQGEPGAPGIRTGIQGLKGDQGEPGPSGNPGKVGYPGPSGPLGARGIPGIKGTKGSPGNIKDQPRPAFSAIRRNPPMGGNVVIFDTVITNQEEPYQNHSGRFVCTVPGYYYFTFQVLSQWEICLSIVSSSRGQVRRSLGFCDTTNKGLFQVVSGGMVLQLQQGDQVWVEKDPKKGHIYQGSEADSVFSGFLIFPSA", "T12 sequence (P02746 28-253 limits assumed, chain 2 of 3)": "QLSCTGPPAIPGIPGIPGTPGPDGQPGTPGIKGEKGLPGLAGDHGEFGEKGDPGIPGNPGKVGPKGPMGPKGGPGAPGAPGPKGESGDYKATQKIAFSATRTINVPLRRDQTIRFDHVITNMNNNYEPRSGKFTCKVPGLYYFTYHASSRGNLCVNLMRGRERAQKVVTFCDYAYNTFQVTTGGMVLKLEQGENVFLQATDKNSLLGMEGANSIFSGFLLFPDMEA", "T12 sequence (P02747 29-245 limits assumed, chain 3 of 3)": "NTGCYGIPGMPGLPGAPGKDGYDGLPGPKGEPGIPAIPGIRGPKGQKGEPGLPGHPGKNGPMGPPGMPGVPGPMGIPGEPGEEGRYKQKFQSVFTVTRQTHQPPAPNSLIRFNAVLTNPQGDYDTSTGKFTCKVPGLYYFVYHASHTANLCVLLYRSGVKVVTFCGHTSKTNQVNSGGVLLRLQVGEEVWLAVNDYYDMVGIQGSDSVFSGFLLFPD", "experiment": "ELISA: antibody dilutions coated on the plate, HRP conjugated human C1q added, TMB, OD 450", "protocol": "(§5) The C1q binding assay used for this analysis is an ELISA assay. Samples were coated on ELISA plates, HRP conjugated human C1q is incubated with samples on the plate. The bound HRP, in the presence of substrate TMB, generates a colorimetric signal. […] Sample dilutions are coated onto ELISA plates, and the plates incubated for 1 hour±30 min at room temperature. After coating, the plates are washed, blocked, and washed again. Peroxidase conjugated C1q was added, and the plates incubated for 1.5 hours±30 minutes at room temperature. After incubation and washing, a tetramethylbenzidine (TMB) substrate solution was added and plates incubated at room temperature for 7 minutes (~1 min/+30 seconds). This produces a colorimetric reaction which is proportional to the level of C1q bound. The reaction is stopped with the addition of 1M sulfuric acid and the color is measured at 450 nm using a Molecular Devices SPECTRAMAX® microplate reader. SOFTMAX® PRO is used to analyze the data with weighted nonlinear regression using a 4-parameter logistic fit. […] EC50 of each test sample, based on the 4-parameter logistic fitted curve, were generated for additional information."}, "[16]": {"target": "T2, FcγIIIA Receptor on the effector cells", "experiment": "cell-based or functional assay", "remark": "listed apart in the source"}, "[17]": {"target": "T3, FcγRIIIa 158V receptor (SPR assay)", "experiment": "SPR, receptor amine-coupled to the chip, antibody injected, 1:1 kinetics; average of 4 values", "protocol": "as §1, §2"}, "[18]": {"target": "T4, FcγRIIIa 158F receptor (SPR assay)", "experiment": "SPR, receptor amine-coupled to the chip, antibody injected, steady state affinity; average of 4 values", "protocol": "as §1, §2"}, "[19]": {"target": "T1, CD20 on Jeko-1, Raji and Daudi cells", "experiment": "flow cytometry (FACS) on Daudi cells, PE conjugated anti-human secondary antibody; Daudi cells", "protocol": "as §4"}, "HRP conjugated human C1q [20]": {"target": "T12, HRP conjugated human C1q", "experiment": "ELISA, antibody coated on the plate, HRP conjugated human C1q", "protocol": "as §5"}}}
{"binder": "B1", "values": [{"measurement": "EC50", "setting": "[1]", "value": 0.063, "unit": "µg/mL"}, {"measurement": "ADCC EC50, fold lower than OCREVUS", "setting": "[2]", "value": "~25", "unit": "fold"}, {"measurement": "fold higher affinity than OCREVUS", "setting": "[3]", "value": "~15", "unit": "fold"}, {"measurement": "fold higher affinity than OCREVUS", "setting": "[4]", "value": "~10", "unit": "fold"}, {"measurement": "Kd", "setting": "[5]", "value": 56, "unit": "nM"}, {"measurement": "Kd", "setting": "[6]", "value": 20, "unit": "nM"}, {"measurement": "Kd", "setting": "[7]", "value": 23, "unit": "nM"}, {"measurement": "Kd", "setting": "[8]", "value": 92, "unit": "nM"}, {"measurement": "Kd", "setting": "[9]", "value": 169, "unit": "nM"}, {"measurement": "Kd", "setting": "[10]", "value": 42, "unit": "nM"}, {"measurement": "Kd", "setting": "[11]", "value": 158, "unit": "nM"}, {"measurement": "EC50", "setting": "[12]", "value": 0.00202, "unit": "ng/mL"}, {"measurement": "ADCC EC50 (Raji target cells, KILR CD16a effector cells)", "setting": "[13]", "value": 2.42, "unit": "pg/mL"}, {"measurement": "CDC EC50 (Jeko-1 cells, rabbit serum complement)", "setting": "[14]", "value": 670, "unit": "ng/mL"}, {"measurement": "EC50 (read off the curve)", "setting": "HRP conjugated human C1q [15]", "value": "~3", "unit": "µg/mL"}, {"measurement": "EC50 of ADCC assay Using Primary NK Cells (Raji target cells, LDH release)", "setting": "[16]", "value": 49, "unit": "µg/mL"}, {"measurement": "Kd", "setting": "[17]", "value": 64.1, "unit": "nM"}, {"measurement": "Kd", "setting": "[18]", "value": 680, "unit": "nM"}, {"measurement": "EC50", "setting": "[19]", "value": 0.983, "unit": "µg/mL"}, {"measurement": "EC50", "setting": "HRP conjugated human C1q [20]", "value": 2.6, "unit": "µg/mL"}]}
